PMC8417825, “Light-Induced Dynamic Change of Phytochrome B and Cryptochrome 1 Stabilizes SINATs in Arabidopsis” (Frontiers in Plant Science, 2021)

T1: phyB-N-GST (Arabidopsis thaliana, UniProt P14713 1-645)
T1 construct: phytochrome B (phyB), Arabidopsis thaliana, N-terminus, amino acids 1-645; also called N-terminus of phytochrome B; source: E. coli, purified (glutathione resin)
T1 sequence (looked up): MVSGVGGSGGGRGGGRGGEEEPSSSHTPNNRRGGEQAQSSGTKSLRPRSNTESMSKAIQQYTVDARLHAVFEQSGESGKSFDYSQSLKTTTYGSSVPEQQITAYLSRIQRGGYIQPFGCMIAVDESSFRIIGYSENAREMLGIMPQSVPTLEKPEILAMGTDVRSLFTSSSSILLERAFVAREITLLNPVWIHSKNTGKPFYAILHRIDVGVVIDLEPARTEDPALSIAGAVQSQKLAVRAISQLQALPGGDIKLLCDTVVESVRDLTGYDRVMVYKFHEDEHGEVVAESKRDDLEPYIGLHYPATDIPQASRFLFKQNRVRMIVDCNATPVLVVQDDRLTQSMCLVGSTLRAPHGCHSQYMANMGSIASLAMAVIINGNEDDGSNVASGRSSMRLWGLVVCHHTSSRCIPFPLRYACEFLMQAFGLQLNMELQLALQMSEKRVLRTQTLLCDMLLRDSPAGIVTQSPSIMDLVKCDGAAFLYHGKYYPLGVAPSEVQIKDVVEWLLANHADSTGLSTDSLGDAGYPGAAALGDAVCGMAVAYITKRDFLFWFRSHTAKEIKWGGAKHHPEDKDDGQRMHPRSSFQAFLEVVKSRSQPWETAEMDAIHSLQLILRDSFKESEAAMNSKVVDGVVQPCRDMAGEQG

T2: phyB-C-GST (Arabidopsis thaliana, UniProt P14713 646-1172)
T2 construct: phytochrome B (phyB), Arabidopsis thaliana, C-terminus, amino acids 646-1,172; Cloned into pGEX-4T-1; also called C-terminus of phytochrome B; source: E. coli BL21 (DE3) pLysS, purified (glutathione resin)
T2 sequence (looked up): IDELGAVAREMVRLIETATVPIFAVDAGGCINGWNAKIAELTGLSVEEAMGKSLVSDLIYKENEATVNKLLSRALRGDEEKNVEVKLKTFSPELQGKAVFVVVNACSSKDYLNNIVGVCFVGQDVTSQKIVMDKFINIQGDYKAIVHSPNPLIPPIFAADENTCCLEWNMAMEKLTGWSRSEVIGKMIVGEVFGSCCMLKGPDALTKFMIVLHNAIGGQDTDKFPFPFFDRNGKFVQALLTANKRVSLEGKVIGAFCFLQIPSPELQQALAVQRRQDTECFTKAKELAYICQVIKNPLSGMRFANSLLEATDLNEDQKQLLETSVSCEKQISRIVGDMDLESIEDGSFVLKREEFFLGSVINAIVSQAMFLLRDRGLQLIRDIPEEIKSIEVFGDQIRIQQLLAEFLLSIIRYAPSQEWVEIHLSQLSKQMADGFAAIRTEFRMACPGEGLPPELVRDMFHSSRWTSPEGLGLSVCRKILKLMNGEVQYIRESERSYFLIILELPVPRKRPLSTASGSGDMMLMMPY

B1: CRY1-C-GST (domain or fragment, Arabidopsis thaliana, UniProt Q43125 491-681, looked up)
chain: MWQLEAASRAAIENGSEEGLGDSAEVEEAPIEFPRDITMEETEPTRLNPNRRYEDQMVPSITSSLIRPEEDEESSLNLRNSVGDSRAEVPRNMVNTNQAQQRRAEPASNQVTAMIPEFNIRIVAESTEDSTAESSSSGRRERSGGIVPEWSPGYSEQFPSEENGIGGGSTTSSYLQNHHEILNWRRLSQTG
notes: cryptochrome 1 (CRY1), Arabidopsis thaliana, C-terminus, amino acids 491-681; Cloned into pGEX-4T-1; also called C-terminus of cryptochrome 1; source: E. coli BL21 (DE3) pLysS, purified (glutathione resin)
B2: SINAT2-His (natural protein, Arabidopsis thaliana, UniProt Q9M2P4 1-308, looked up)
chain: MAPGGSALKEVMESNSTGMDYEVKTAKVEVNNNKPTKPGSAGIGKYGIHSNNGVYELLECPVCTNLMYPPIHQCPNGHTLCSNCKLRVQNTCPTCRYELGNIRCLALEKVAESLEVPCRYQNLGCHDIFPYYSKLKHEQHCRFRPYTCPYAGSECSVTGDIPTLVVHLKDDHKVDMHDGCTFNHRYVKSNPHEVENATWMLTVFNCFGRQFCLHFEAFQLGMAPVYMAFLRFMGDENEAKKFSYSLEVGAHGRKLTWQGIPRSIRDSHRKVRDSQDGLIIPRNLALYFSGGDRQELKLRVTGRIWKEE
notes: SINAT2 (SINA of Arabidopsis thaliana 2), At3g58040; Printed both as SINAT2-His (pull-down) and His-SINAT2 (ubiquitination assay); also called His-SINAT2

How the values were obtained:
Assay in all cases: pull-down; in vitro pull-down: about 5 ug GST-tagged protein on glutathione resin, about 2 ug His-tagged protein added, 1 h at 4°C; washed with 1x PBS, 0.1% Triton X-100; anti-His blot
Conditions in all cases: both partners purified
SINAT2-His = molecular target: B2
phyB-N-GST = molecular target: T1, phyB-N-GST
phyB-C-GST = molecular target: T2, phyB-C-GST
CRY1-N-GST = molecular target: T3, CRY1-N-GST (Arabidopsis thaliana, UniProt Q43125 1-490)
T3 construct: cryptochrome 1 (CRY1), Arabidopsis thaliana, N-terminus, amino acids 1-490; Cloned into pGEX-4T-1; also called N-terminus of cryptochrome 1; source: E. coli BL21 (DE3) pLysS, purified (glutathione resin)
T3 sequence (Q43125 1-490): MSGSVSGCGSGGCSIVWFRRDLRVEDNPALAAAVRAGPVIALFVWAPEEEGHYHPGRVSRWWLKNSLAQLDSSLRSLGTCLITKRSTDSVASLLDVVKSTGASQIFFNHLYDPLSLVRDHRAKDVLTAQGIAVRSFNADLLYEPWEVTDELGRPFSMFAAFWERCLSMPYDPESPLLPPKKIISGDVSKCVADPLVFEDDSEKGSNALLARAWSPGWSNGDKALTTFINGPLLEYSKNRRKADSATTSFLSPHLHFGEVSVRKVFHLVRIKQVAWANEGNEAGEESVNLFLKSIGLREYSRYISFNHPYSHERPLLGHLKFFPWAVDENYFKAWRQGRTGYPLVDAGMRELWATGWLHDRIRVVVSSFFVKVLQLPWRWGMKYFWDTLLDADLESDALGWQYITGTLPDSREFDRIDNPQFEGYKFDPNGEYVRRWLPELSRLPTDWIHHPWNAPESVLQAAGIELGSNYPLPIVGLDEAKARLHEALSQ

binding result (SINAT2-His)	binding result (phyB-N-GST)	binding result (phyB-C-GST)	binding result (CRY1-N-GST)	Binder
binds				B1
	binds	binds	binds	B2
